Consider one substance from patent publication US20070167369A1, “Novel use of isolated polypeptide comprising four FAS-1 domains, EM1 domain and RGD motif” (KYUNGPOOK NATIONAL UNIVERSITY INDUSTRY-ACADEMIC COOPERATION …, priority 2004, published 2007).

This experiment addresses αvβ3 integrin (human) (UniProt P06756). As to the kind of experiment: cell-based or functional assay.

αvβ3 integrin (human), sequence (P06756 31-1048, chain 1 of 2): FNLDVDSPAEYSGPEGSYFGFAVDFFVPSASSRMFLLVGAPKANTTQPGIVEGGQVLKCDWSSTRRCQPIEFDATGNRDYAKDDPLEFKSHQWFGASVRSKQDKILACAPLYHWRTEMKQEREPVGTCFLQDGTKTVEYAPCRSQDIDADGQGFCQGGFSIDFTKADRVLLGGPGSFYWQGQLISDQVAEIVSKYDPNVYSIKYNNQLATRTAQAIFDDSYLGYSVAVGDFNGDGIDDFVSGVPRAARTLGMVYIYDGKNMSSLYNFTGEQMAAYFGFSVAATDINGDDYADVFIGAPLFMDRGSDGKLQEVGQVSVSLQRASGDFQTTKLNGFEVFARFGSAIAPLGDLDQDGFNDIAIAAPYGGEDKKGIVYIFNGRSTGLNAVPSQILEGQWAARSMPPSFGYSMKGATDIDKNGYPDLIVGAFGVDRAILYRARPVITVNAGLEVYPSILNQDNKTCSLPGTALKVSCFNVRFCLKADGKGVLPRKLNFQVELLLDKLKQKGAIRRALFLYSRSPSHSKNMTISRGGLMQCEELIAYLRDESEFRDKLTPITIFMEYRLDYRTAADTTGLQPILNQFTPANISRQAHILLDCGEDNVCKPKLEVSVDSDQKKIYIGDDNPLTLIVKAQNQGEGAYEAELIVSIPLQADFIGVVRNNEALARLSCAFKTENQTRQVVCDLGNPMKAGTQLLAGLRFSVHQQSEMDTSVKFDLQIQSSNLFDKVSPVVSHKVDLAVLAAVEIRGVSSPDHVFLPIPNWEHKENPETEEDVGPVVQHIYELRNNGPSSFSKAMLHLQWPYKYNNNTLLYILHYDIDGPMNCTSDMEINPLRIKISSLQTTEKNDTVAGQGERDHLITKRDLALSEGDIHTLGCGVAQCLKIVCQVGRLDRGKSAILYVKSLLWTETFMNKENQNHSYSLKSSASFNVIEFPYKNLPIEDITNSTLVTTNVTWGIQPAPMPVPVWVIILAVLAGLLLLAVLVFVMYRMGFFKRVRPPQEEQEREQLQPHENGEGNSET
αvβ3 integrin (human), sequence (P05106 27-788, chain 2 of 2, further chain): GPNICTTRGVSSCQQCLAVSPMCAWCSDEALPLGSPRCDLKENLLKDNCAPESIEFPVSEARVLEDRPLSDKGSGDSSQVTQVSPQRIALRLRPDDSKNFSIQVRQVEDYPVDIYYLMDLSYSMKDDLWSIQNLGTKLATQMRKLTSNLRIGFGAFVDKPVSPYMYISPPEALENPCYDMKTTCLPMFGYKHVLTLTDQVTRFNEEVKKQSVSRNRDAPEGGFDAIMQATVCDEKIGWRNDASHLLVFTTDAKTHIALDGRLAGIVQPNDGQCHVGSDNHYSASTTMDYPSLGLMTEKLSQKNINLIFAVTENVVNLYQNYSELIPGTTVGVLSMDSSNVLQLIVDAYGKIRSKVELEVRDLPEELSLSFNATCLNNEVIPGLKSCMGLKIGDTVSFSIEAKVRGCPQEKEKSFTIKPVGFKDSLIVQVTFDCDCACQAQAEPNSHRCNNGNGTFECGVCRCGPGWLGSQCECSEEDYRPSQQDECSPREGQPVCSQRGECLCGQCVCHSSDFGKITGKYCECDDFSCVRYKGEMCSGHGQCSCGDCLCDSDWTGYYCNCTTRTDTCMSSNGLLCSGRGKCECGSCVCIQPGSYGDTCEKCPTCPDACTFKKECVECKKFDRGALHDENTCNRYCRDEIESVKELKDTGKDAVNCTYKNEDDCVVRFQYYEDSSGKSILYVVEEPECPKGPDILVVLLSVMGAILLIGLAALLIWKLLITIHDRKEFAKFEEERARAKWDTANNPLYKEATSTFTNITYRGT

Regarding “Regenin (regenin protein that expresses four of the fourth fas-1 domains of βig-h3)”, the 70%-inhibition of tube formation (HUVECs on Matrigel) was found to be 5 µM and the half-inhibition of migration toward vitronectin (HUVECs, transwell) was determined as 5 µM.
